{
  "source": "patent US20030054439A1",
  "about": "(Amgen, published 2003)",
  "target": "TNFα from R&D Systems (L929 cytotoxicity assay)",
  "assay": "cell-based or functional assay",
  "data": [
    {"binder": "sTNFR-I 3D/N105 (receptor) DSVCPQGKYIHPQNNSICCTKCHKGTYLYNDCPGPGQDTDCRECESGSFTASENHLRHCLSCSKCRKEMGQVEISSCTVDRDTVCGCRKNQYRHYWSENLFQCFNCSLCLNGTVHLSCQEKQNTVCT", "values": [
      {"measurement": "ED50 (ng/mL), L929 cytotoxicity assay, run #2, single data point", "value": 413, "unit": "ng/mL"}
    ]}
  ]
}
